T1: CAPRIN-1 protein expressed on the membrane surface of human cancer cells (human, UniProt Q14444 2-709)
T1 sequence (looked up): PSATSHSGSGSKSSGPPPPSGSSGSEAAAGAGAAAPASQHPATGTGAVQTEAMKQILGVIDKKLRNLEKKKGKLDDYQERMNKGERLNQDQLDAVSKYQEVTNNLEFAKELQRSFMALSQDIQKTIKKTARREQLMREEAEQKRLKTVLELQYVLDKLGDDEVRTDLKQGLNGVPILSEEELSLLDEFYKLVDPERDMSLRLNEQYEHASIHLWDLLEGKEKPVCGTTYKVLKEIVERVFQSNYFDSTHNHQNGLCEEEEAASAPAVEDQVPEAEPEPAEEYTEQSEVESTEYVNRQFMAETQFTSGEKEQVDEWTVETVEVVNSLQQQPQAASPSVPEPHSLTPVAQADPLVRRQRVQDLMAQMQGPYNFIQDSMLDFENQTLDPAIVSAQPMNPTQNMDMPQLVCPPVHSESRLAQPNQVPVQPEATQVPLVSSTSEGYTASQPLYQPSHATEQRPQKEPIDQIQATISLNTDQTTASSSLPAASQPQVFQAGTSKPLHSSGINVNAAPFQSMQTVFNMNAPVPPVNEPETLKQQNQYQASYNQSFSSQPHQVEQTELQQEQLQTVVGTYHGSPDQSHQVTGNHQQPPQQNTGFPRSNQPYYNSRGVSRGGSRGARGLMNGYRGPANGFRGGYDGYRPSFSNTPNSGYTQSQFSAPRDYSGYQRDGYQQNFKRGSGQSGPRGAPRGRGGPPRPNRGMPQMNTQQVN


target: T1, CAPRIN-1 protein expressed on the …; experiment: cell-based or functional assay

| Binder | ADCC cytotoxic activity (51Cr release) on 22Rv1 [%] | ADCC cytotoxic activity (51Cr release) on A-673 [%] | ADCC cytotoxic activity (51Cr release) on BT-474 [%] | ADCC cytotoxic activity (51Cr release) on Caki-2 [%] | ADCC cytotoxic activity (51Cr release) on FaDu [%] | ADCC cytotoxic activity (51Cr release) on G-361 [%] | ADCC cytotoxic activity (51Cr release) on HEC-1-A [%] | ADCC cytotoxic activity (51Cr release) on HT-29 [%] | ADCC cytotoxic activity (51Cr release) on HT-1080 [%] | ADCC cytotoxic activity (51Cr release) on HT-1376 [%] |
| --- | --- | --- | --- | --- | --- | --- | --- | --- | --- | --- |
| humanized antibody #7 (antibody, V domains shown) VH: EVQLVESGGGLVQPGGSLRLSCAASGFSLSSHSLGWVRQAPGKGLEWIGDIRSGGSAYYANWAKGRFTISRDNSKNTLYLQMNSLRAEDTAVYYCTRTNGPSDLTNRLDLWGQGTLVTVSS VL: QVLTQSPSSLSASVGDRVTINCQASQSLYNNENLAWFQQKPGKVPKRLIYGASTLASGVSSRFSGSGSGTEFTLTISSLQCEDFAIYYCLGEFSCGSADCFAFGGGTKVEIK | ≥ 49 | ≥ 50 | ≥ 54 | ≥ 37 | ≥ 50 | ≥ 25 | ≥ 52 | ≥ 43 | ≥ 30 | ≥ 45 |
| humanized antibody #6 (antibody, V domains shown) VH: EVQLVESGGGLVQPGGSLRLSCAASGFSLSSHSLGWVRQAPGKGLEWIGDIRSGGSAYYANWAKGRFTISRDNSKNTLYLQMNSLRAEDTAVYFCTRTNGPSDLTNRLDLWGQGTLVTVSS VL: QVLTQSPSSLSASVGDRVTINCQASQSLYNNENLAWFQQKPGKVPKRLIYGASTLASGVSSRFSGSGSGTEFTLTISSLQCEDFAIYYCLGEFSCGSADCFAFGGGTKVEIK | ≥ 49 | ≥ 50 | ≥ 54 | ≥ 37 | ≥ 50 | ≥ 25 | ≥ 52 | ≥ 43 | ≥ 30 | ≥ 45 |
| humanized antibody #10 (antibody, V domains shown) VH: EQSLVESGGGLVQPGGSLRLSCAASGFSLSSHSLGWVRQAPGKGLEWIGDIRSGGSAYYANWAKGRFTISRDNSKNTLYLQMNSLRAEDTAVYYCTRTNGPSDLTNRLDLWGQGTLVTVSS VL: QVLTQSPSSLSASVGDRVTINCQASQSLYNNENLAWFQQKPGKVPKRLIYGASTLASGVSSRFSGSGSGTEFTLTISSLQCEDFAIYYCLGEFSCGSADCFAFGGGTKVEIK | ≥ 49 | ≥ 50 | ≥ 54 | ≥ 37 | ≥ 50 | ≥ 25 | ≥ 52 | ≥ 43 | ≥ 30 | ≥ 45 |
| humanized antibody #2 (antibody, V domains shown) VH: EVQLVESGGGLVQPGGSLRLSCAASGFSLSSHSLGWVRQAPGKGLEWIGDIRSGGSAYYANWAKGRFTISRDNSKNTLYLQMNSLRAEDTAVYYCTRTNGPSDLTNRLDLWGQGTLVTVSS VL: EIVLTQSPSSLSASVGDRVTINCQASQSLYNNENLAWFQQKPGKVPKRLIYGASTLASGVSSRFSGSGSGTEFTLTISNLQPEDFATYYCLGEFSCGSADCFAFGGGTKVEIK | ≥ 45 | ≥ 46 | ≥ 50 | ≥ 33 | ≥ 40 | ≥ 21 | ≥ 45 | ≥ 40 | ≥ 25 | ≥ 40 |
| humanized antibody #0 (antibody, V domains shown) VH: EVQLVESGGGLVQPGGSLRLSCAASGFSLSSHSLGWVRQAPGKGLEWIGDIRSGGSAYYANWAKGRFTISRDNSKNTLYLQMNSLRAEDTAVYFCTRTNGPSDLTNRLDLWGQGTLVTVSS VL: AIQMTQSPSSLSASVGDRVTINCQASQSLYNNENLAWFQQKPGKAPKRLIYGASTLASGVSSRFSGSGSGTDFTLTISSLQPEDFAIYYCLGEFSCGSADCFAFGGGTKVEIK | ≥ 38 | ≥ 40 | ≥ 46 | ≥ 26 | ≥ 35 | ≥ 15 | ≥ 40 | ≥ 35 | ≥ 20 | ≥ 28 |

same assay, conditions: not given

| Binder | ADCC cytotoxic activity (51Cr release) on Hep3B [%] | ADCC cytotoxic activity (51Cr release) on IM-9 [%] | ADCC cytotoxic activity (51Cr release) on MDA-MB-361 [%] | ADCC cytotoxic activity (51Cr release) on NCI-H2452 [%] | ADCC cytotoxic activity (51Cr release) on NCI-N87 [%] | ADCC cytotoxic activity (51Cr release) on NT/D1 [%] | ADCC cytotoxic activity (51Cr release) on OCI-AML5 [%] | ADCC cytotoxic activity (51Cr release) on OE33 [%] | ADCC cytotoxic activity (51Cr release) on Panc10.5 [%] | ADCC cytotoxic activity (51Cr release) on QG56 [%] |
| --- | --- | --- | --- | --- | --- | --- | --- | --- | --- | --- |
| humanized antibody #7 (antibody, V domains shown) VH: EVQLVESGGGLVQPGGSLRLSCAASGFSLSSHSLGWVRQAPGKGLEWIGDIRSGGSAYYANWAKGRFTISRDNSKNTLYLQMNSLRAEDTAVYYCTRTNGPSDLTNRLDLWGQGTLVTVSS VL: QVLTQSPSSLSASVGDRVTINCQASQSLYNNENLAWFQQKPGKVPKRLIYGASTLASGVSSRFSGSGSGTEFTLTISSLQCEDFAIYYCLGEFSCGSADCFAFGGGTKVEIK | ≥ 28 | ≥ 35 | ≥ 52 | ≥ 35 | ≥ 45 | ≥ 37 | ≥ 20 | ≥ 35 | ≥ 35 | ≥ 46 |
| humanized antibody #6 (antibody, V domains shown) VH: EVQLVESGGGLVQPGGSLRLSCAASGFSLSSHSLGWVRQAPGKGLEWIGDIRSGGSAYYANWAKGRFTISRDNSKNTLYLQMNSLRAEDTAVYFCTRTNGPSDLTNRLDLWGQGTLVTVSS VL: QVLTQSPSSLSASVGDRVTINCQASQSLYNNENLAWFQQKPGKVPKRLIYGASTLASGVSSRFSGSGSGTEFTLTISSLQCEDFAIYYCLGEFSCGSADCFAFGGGTKVEIK | ≥ 28 | ≥ 35 | ≥ 52 | ≥ 35 | ≥ 45 | ≥ 37 | ≥ 20 | ≥ 35 | ≥ 35 | ≥ 46 |
| humanized antibody #10 (antibody, V domains shown) VH: EQSLVESGGGLVQPGGSLRLSCAASGFSLSSHSLGWVRQAPGKGLEWIGDIRSGGSAYYANWAKGRFTISRDNSKNTLYLQMNSLRAEDTAVYYCTRTNGPSDLTNRLDLWGQGTLVTVSS VL: QVLTQSPSSLSASVGDRVTINCQASQSLYNNENLAWFQQKPGKVPKRLIYGASTLASGVSSRFSGSGSGTEFTLTISSLQCEDFAIYYCLGEFSCGSADCFAFGGGTKVEIK | ≥ 28 | ≥ 35 | ≥ 52 | ≥ 35 | ≥ 45 | ≥ 37 | ≥ 20 | ≥ 35 | ≥ 35 | ≥ 46 |
| humanized antibody #2 (antibody, V domains shown) VH: EVQLVESGGGLVQPGGSLRLSCAASGFSLSSHSLGWVRQAPGKGLEWIGDIRSGGSAYYANWAKGRFTISRDNSKNTLYLQMNSLRAEDTAVYYCTRTNGPSDLTNRLDLWGQGTLVTVSS VL: EIVLTQSPSSLSASVGDRVTINCQASQSLYNNENLAWFQQKPGKVPKRLIYGASTLASGVSSRFSGSGSGTEFTLTISNLQPEDFATYYCLGEFSCGSADCFAFGGGTKVEIK | ≥ 25 | ≥ 30 | ≥ 45 | ≥ 39 | ≥ 38 | ≥ 30 | ≥ 18 | ≥ 33 | ≥ 30 | ≥ 42 |
| humanized antibody #0 (antibody, V domains shown) VH: EVQLVESGGGLVQPGGSLRLSCAASGFSLSSHSLGWVRQAPGKGLEWIGDIRSGGSAYYANWAKGRFTISRDNSKNTLYLQMNSLRAEDTAVYFCTRTNGPSDLTNRLDLWGQGTLVTVSS VL: AIQMTQSPSSLSASVGDRVTINCQASQSLYNNENLAWFQQKPGKAPKRLIYGASTLASGVSSRFSGSGSGTDFTLTISSLQPEDFAIYYCLGEFSCGSADCFAFGGGTKVEIK | ≥ 21 | ≥ 27 | ≥ 40 | ≥ 31 | ≥ 34 | ≥ 25 | ≥ 15 | ≥ 30 | ≥ 24 | ≥ 38 |

same assay, conditions: not given

| Binder | ADCC cytotoxic activity (51Cr release) on RD-ES [%] | ADCC cytotoxic activity (51Cr release) on RPM11666 [%] | ADCC cytotoxic activity (51Cr release) on Ramos [%] | ADCC cytotoxic activity (51Cr release) on SKOV3 [%] | ADCC cytotoxic activity (51Cr release) on T24 [%] | ADCC cytotoxic activity (51Cr release) on TGBC14TKB [%] | ADCC cytotoxic activity (51Cr release) on TT [%] | ADCC cytotoxic activity (51Cr release) on U-87MG [%] |
| --- | --- | --- | --- | --- | --- | --- | --- | --- |
| humanized antibody #7 (antibody, V domains shown) VH: EVQLVESGGGLVQPGGSLRLSCAASGFSLSSHSLGWVRQAPGKGLEWIGDIRSGGSAYYANWAKGRFTISRDNSKNTLYLQMNSLRAEDTAVYYCTRTNGPSDLTNRLDLWGQGTLVTVSS VL: QVLTQSPSSLSASVGDRVTINCQASQSLYNNENLAWFQQKPGKVPKRLIYGASTLASGVSSRFSGSGSGTEFTLTISSLQCEDFAIYYCLGEFSCGSADCFAFGGGTKVEIK | ≥ 48 | ≥ 40 | ≥ 20 | ≥ 35 | ≥ 36 | ≥ 35 | ≥ 42 | ≥ 36 |
| humanized antibody #6 (antibody, V domains shown) VH: EVQLVESGGGLVQPGGSLRLSCAASGFSLSSHSLGWVRQAPGKGLEWIGDIRSGGSAYYANWAKGRFTISRDNSKNTLYLQMNSLRAEDTAVYFCTRTNGPSDLTNRLDLWGQGTLVTVSS VL: QVLTQSPSSLSASVGDRVTINCQASQSLYNNENLAWFQQKPGKVPKRLIYGASTLASGVSSRFSGSGSGTEFTLTISSLQCEDFAIYYCLGEFSCGSADCFAFGGGTKVEIK | ≥ 48 | ≥ 40 | ≥ 20 | ≥ 35 | ≥ 36 | ≥ 35 | ≥ 42 | ≥ 36 |
| humanized antibody #10 (antibody, V domains shown) VH: EQSLVESGGGLVQPGGSLRLSCAASGFSLSSHSLGWVRQAPGKGLEWIGDIRSGGSAYYANWAKGRFTISRDNSKNTLYLQMNSLRAEDTAVYYCTRTNGPSDLTNRLDLWGQGTLVTVSS VL: QVLTQSPSSLSASVGDRVTINCQASQSLYNNENLAWFQQKPGKVPKRLIYGASTLASGVSSRFSGSGSGTEFTLTISSLQCEDFAIYYCLGEFSCGSADCFAFGGGTKVEIK | ≥ 48 | ≥ 40 | ≥ 20 | ≥ 35 | ≥ 36 | ≥ 35 | ≥ 42 | ≥ 36 |
| humanized antibody #2 (antibody, V domains shown) VH: EVQLVESGGGLVQPGGSLRLSCAASGFSLSSHSLGWVRQAPGKGLEWIGDIRSGGSAYYANWAKGRFTISRDNSKNTLYLQMNSLRAEDTAVYYCTRTNGPSDLTNRLDLWGQGTLVTVSS VL: EIVLTQSPSSLSASVGDRVTINCQASQSLYNNENLAWFQQKPGKVPKRLIYGASTLASGVSSRFSGSGSGTEFTLTISNLQPEDFATYYCLGEFSCGSADCFAFGGGTKVEIK | ≥ 40 | ≥ 36 | ≥ 18 | ≥ 31 | ≥ 33 | ≥ 30 | ≥ 35 | ≥ 29 |
| humanized antibody #0 (antibody, V domains shown) VH: EVQLVESGGGLVQPGGSLRLSCAASGFSLSSHSLGWVRQAPGKGLEWIGDIRSGGSAYYANWAKGRFTISRDNSKNTLYLQMNSLRAEDTAVYFCTRTNGPSDLTNRLDLWGQGTLVTVSS VL: AIQMTQSPSSLSASVGDRVTINCQASQSLYNNENLAWFQQKPGKAPKRLIYGASTLASGVSSRFSGSGSGTDFTLTISSLQPEDFAIYYCLGEFSCGSADCFAFGGGTKVEIK | ≥ 31 | ≥ 30 | ≥ 15 | ≥ 27 | ≥ 30 | ≥ 25 | ≥ 30 | ≥ 24 |
